Laboratory results from patent publication US20260250361A1 (HUAHUI HEALTH, published 2026).

How the values were obtained:
[1] = biological target: FcγRIIIa F158 on Jurkat/NFAT-luc2p/FcγRIIIa F158 cells (UniProt P08637 17-254, limits assumed); assay: cell-based or functional assay
[2] = biological target: T1, FcγRIIa R131 on Jurkat/NFAT-luc2p/FcγRIIa R131 cells (UniProt P12318 34-317); assay: cell-based or functional assay
T1 sequence (looked up): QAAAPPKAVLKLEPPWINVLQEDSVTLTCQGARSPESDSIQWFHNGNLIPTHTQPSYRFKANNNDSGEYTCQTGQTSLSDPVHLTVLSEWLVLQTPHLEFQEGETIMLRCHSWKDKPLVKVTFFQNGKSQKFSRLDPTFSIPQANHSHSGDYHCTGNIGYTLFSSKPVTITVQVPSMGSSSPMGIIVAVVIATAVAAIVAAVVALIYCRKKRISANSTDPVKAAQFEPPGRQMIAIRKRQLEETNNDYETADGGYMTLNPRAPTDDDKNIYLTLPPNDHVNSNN

[3] = biological target: Pre-S1 domain of the L protein on recombinant HBV D genotype virus (hepatitis B virus, D genotype); assay: cell-based or functional assay
hFcγRIIa (H131) [4] = biological target: T2, hFcγRIIa (H131) (human, UniProt P12318 34-217); assay: Biacore; ratio against A14 WT
T2 construct: also called hFcγR2a H131
T2 sequence: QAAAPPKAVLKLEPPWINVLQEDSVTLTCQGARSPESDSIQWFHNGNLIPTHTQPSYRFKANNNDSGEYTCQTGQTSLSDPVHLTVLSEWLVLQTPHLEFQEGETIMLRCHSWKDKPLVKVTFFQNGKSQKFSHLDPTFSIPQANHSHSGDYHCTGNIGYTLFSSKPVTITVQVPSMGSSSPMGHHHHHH
Procedure: (§1) Different concentrations of recombinant hFcγR were used as the mobile phase over the flow path to allow binding and dissociation with the antibodies on the chip at pH 7.0. The affinity was then calculated by fitting the data using a 1:1 Langmuir binding model.

hFcγRIIa (R131) [5] = biological target: T3, hFcγRIIa (R131) (human, UniProt P12318 34-217); assay: Biacore; ratio against A14 WT
T3 construct: also called hFcγR2a R131
T3 sequence: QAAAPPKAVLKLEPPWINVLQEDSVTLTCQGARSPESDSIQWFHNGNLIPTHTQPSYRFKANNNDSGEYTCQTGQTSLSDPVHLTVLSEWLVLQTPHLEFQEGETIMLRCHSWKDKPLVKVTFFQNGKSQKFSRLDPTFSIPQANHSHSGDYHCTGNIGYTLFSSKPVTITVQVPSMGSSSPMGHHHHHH
Procedure: as §1

hFcγRIIb [6] = biological target: T4, hFcγRIIb (human, UniProt P31994 43-217); assay: Biacore; ratio against A14 WT
T4 construct: also called hFcγR2b
T4 sequence: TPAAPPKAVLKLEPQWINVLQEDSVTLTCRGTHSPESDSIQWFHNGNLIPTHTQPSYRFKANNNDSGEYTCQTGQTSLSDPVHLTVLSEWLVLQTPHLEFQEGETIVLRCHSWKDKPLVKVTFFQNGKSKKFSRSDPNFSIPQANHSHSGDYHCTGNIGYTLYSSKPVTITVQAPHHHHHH
Procedure: as §1

hFcγRIIIa (V158) [7] = biological target: T5, hFcγRIIIa (V158) (human, UniProt P08637 17-208); assay: Biacore; ratio against A14 WT
T5 construct: V at position 158; also called hFcγR3a V158
T5 sequence (P08637 other isoform, or with tags, fused parts or gaps): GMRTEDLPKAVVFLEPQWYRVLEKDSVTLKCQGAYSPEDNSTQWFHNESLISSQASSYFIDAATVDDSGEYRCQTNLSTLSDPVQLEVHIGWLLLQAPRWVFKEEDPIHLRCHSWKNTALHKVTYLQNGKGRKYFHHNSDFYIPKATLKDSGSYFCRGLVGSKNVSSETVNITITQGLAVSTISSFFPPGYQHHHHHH
Procedure: as §1

hFcγRIIIa (F158) [8] = biological target: T6, hFcγRIIIa (F158) (human, UniProt P08637 17-208); assay: Biacore; ratio against A14 WT
T6 construct: F at position 158; also called hFcγR3a F158
T6 sequence (P08637 other isoform, or with tags, fused parts or gaps): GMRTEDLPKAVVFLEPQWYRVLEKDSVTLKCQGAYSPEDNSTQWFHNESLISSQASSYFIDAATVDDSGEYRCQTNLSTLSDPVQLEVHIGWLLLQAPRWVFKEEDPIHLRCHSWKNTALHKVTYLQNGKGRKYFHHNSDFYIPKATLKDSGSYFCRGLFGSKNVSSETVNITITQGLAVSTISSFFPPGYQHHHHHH
Procedure: as §1

hFcγRIa [9] = biological target: T7, hFcγRIa (human, UniProt P12314 16-288, limits assumed); assay: Biacore; ratio against A14 WT
T7 construct: Recombinant, Ni column purified; also called hFcγR1a; human FcγRI
T7 sequence (P12314 other isoform, or with tags, fused parts or gaps limits assumed): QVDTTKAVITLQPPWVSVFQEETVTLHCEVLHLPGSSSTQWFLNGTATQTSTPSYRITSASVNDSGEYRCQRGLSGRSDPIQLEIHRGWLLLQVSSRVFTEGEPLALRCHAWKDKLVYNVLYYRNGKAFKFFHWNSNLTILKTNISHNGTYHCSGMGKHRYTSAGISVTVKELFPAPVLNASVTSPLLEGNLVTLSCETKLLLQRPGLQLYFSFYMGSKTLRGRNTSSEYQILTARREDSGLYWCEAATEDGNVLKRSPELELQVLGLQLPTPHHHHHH
Procedure: as §1

[10] = biological target: T8, antigen peptide NC36b (pre-S1); assay: ELISA on the antigen peptide NC36b (Pre-S1), panel title 'Binding to PreS1'
T8 construct: Synthesised by Beijing Zhongke Yaguang Biotechnology; also called target antigen Pre-S1

human FcRn [11] = biological target: T9, human FcRn (human, UniProt P55899 24-297; P61769 21-119); assay: Biacore; hFcRn amine-coupled on CM5 chip, antibody in mobile phase, pH 6.0, 1:1 Langmuir fit
T9 construct: beta-2-microglobulin is not mentioned; also called hFcRn; recombinantly expressed hFcRn
T9 sequence (P55899 24-297 limits assumed, chain 1 of 2): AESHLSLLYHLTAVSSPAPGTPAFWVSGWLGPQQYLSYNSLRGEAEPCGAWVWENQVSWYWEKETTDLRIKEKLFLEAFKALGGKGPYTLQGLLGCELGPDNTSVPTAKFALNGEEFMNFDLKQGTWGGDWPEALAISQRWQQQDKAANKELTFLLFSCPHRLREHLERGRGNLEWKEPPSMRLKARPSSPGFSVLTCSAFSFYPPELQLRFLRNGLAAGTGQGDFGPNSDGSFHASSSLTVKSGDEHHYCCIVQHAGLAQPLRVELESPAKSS
T9 sequence (P61769 21-119 limits assumed, chain 2 of 2): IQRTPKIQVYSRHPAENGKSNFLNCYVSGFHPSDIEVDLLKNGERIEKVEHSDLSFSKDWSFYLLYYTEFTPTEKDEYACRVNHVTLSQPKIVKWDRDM
Procedure: (§2) The affinity was then calculated by fitting the data using a 1:1 Langmuir binding model.

hFcγRIIa (H131) [12] = biological target: T2, hFcγRIIa (H131); assay: Biacore; antibody captured on Protein G CM5 chip, hFcγR in mobile phase, pH 7.0, 1:1 Langmuir fit
Procedure: as §1

hFcγRIIa (R131) [13] = biological target: T3, hFcγRIIa (R131); assay: as above
Procedure: as §1

hFcγRIIb [14] = biological target: T4, hFcγRIIb; assay: as above
Procedure: as §1

hFcγRIIIa (V158) [15] = biological target: T5, hFcγRIIIa (V158); assay: as above
Procedure: as §1

hFcγRIIIa (F158) [16] = biological target: T6, hFcγRIIIa (F158); assay: as above
Procedure: as §1

hFcγRIa [17] = biological target: T7, hFcγRIa; assay: as above
Procedure: as §1

human FcRn [18] = biological target: T9, human FcRn; assay: Biacore (SPR): hFcRn amine-coupled on a CM5 chip, antibody as mobile phase, pH 6.0, 1:1 Langmuir fit
Procedure: as §2

B1: afuco-A14 GA LS (antibody, human IgG1, lambda)
heavy: QVQLQQSGPGLVKPSQTLSLTCAISGDSVSSNSAAWNWIRQSPSRGLEWLGRTYYRSKWYNDYAVSVKSRITINPDTSKNQFSLQLNSVTPEDTAVYYCARGTRWGMDVWGQGTLVTVSSASTKGPSVFPLAPSSKSTSGGTAALGCLVKDYFPEPVTVSWNSGALTSGVHTFPAVLQSSGLYSLSSVVTVPSSSLGTQTYICNVNHKPSNTKVDKKVEPKSCDKTHTCPPCPAPELLAGPSVFLFPPKPKDTLMISRTPEVTCVVVDVSHEDPEVKFNWYVDGVEVHNAKTKPREEQYNSTYRVVSVLTVLHQDWLNGKEYKCKVSNKALPAPIEKTISKAKGQPREPQVYTLPPSRDELTKNQVSLTCLVKGFYPSDIAVEWESNGQPENNYKTTPPVLDSDGSFFLYSKLTVDKSRWQQGNVFSCSVLHEALHSHYTQKSLSLSPGK
light: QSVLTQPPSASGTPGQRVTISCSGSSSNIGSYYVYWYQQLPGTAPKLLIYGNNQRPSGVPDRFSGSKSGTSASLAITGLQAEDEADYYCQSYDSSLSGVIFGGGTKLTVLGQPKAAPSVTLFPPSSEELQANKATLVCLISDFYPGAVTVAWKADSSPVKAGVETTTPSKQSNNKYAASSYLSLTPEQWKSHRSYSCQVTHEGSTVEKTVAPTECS
modifications: Afucosylated modification (expressed in Fut8-knockout FCC# cells)
notes: IgG1
ADCC activity, fold enhancement compared to A14 (Jurkat/NFAT-luc2p/FcγRIIIa F158 reporter) [1]: 18.6 fold
ADCP activity, fold enhancement compared to A14 (Jurkat/NFAT-luc2p/FcγRIIa R131 reporter) [2]: ≥ 4.7 fold
IC50 of inhibition of HBV infection of HepG2-hNTCP cells (HBeAg secretion) [3]: ~11 ng/mL
Fold (KD of A14 WT over KD of afuco-A14 GA LS) (hFcγRIIa (H131) [4]): 4.63 fold
Fold (KD of A14 WT over KD of afuco-A14 GA LS) (hFcγRIIa (R131) [5]): 3.83 fold
Fold (KD of A14 WT over KD of afuco-A14 GA LS) (hFcγRIIb [6]): 0.76 fold
Fold (KD of A14 WT over KD of afuco-A14 GA LS) (hFcγRIIIa (V158) [7]): 7.89 fold
Fold (KD of A14 WT over KD of afuco-A14 GA LS) (hFcγRIIIa (F158) [8]): 11 fold
Fold (KD of A14 WT over KD of afuco-A14 GA LS) (hFcγRIa [9]): 0.41 fold
EC50 (read off the curve) [10]: ~20 ng/mL
fold change in KD against A14 WT (human FcRn [11]): 3.4 fold
Kd (hFcγRIIa (H131) [12]): 169 nM
Kd (hFcγRIIa (R131) [13]): 204 nM
Kd (hFcγRIIb [14]): 7.47 µM
Kd (hFcγRIIIa (V158) [15]): 123 nM
Kd (hFcγRIIIa (F158) [16]): 588 nM
Kd (hFcγRIa [17]): 173 nM
Kd (human FcRn [18]): 6.46 nM
